From article PMC4829482

B1: germacradien-4-ol synthase (GdolS) (Streptomyces citricolor) (protein)
chain: MSDDTSLELPFTHRRNPHQTEAADRHLEWLQRHRELAAVVSGSTYTGWDITELASLVYPESSAEDLALAADLMGFYFLFDDQFDSPLGRRPEQVALICERLSAIAHGTLTAVTSPSERAFADLWRRITLGMTDRWRARAACNWEYYFACHPAEAAGRTIGQPPDREGYLTLRRGTAAMESIFDMIERLGHFEVPQHVMHHPLFRQLRQLAADIPSFTNDVRSFAQESERGDVANLVMIVRRDRCCSTEEACAVVWDEAQRMADRFCDLRDQLPDACRSMSLDPAQRLAAERYADGMALWLAGYLHWESHTRRYHHG

What was measured:
[1] = tested on: CC(C)=CCC/C(C)=C/CC/C(C)=C/CO[P@@](=O)(O)OP(=O)(O)O; assay: steady-state radiochemical kinetics; format: biochemical, Streptomyces citricolor; conditions: Mg2+ active site
[2] = substrate: CC(C)=CCC/C(C)=C/CC/C(C)=C/CO[P@@](=O)(O)OP(=O)(O)O; assay: purified protein; conditions: Mg2+ active site

Molecule	Km [1] [µM]	kcat [1] [s⁻¹]	Km [2] [µM]	kcat [2] [s⁻¹]	kcat/Km [2] [M⁻¹ s⁻¹]
germacradien-4-ol synthase (GdolS) (Streptomyces citricolor; D81E)	0.82 ± 0.11	0.01 ± 0.0006	–	–	–
germacradien-4-ol synthase (GdolS) (Streptomyces citricolor; D84E)	0.92 ± 0.09	0.009 ± 0.0003	–	–	–
germacradien-4-ol synthase (GdolS) (Streptomyces citricolor; E307Q)	2.24 ± 0.16	0.013 ± 0.0004	–	–	–
germacradien-4-ol synthase (GdolS) (Streptomyces citricolor; Y303F)	0.66 ± 0.12	0.014 ± 0.006	–	–	–
B1	–	–	1.07 ± 0.13	0.079	73800
